Measurements published in publication PMC12416549 (2024).

T1: TNFR1 (Homo sapiens, UniProt P19438)
T1 chain: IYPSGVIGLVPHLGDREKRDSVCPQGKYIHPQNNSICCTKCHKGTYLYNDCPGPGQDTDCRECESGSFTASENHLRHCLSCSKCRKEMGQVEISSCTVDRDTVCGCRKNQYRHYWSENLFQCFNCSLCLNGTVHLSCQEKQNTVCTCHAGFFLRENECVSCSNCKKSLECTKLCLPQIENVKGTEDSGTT


Molecular target: T1, TNFR1
Assay: yeast display SC50

Binder	apparent Kd (screen)
L12Y (designed binder) MTLQELLREEAYRRAEAEAFRYALELLAEKFPEQKEYLLDLAEEIESQIRSLSGVDVEDVRKFLDKEWAWVKELLAEHPAELAEVEAARAARLAELRAEVEAKVAA	539 pM
R8I (designed binder) MTLQELLIEEALRRAEAEAFRYALELLAEKFPEQKEYLLDLAEEIESQIRSLSGVDVEDVRKFLDKEWAWVKELLAEHPAELAEVEAARAARLAELRAEVEAKVAA	593 pM
S47K (designed binder) MTLQELLREEALRRAEAEAFRYALELLAEKFPEQKEYLLDLAEEIEKQIRSLSGVDVEDVRKFLDKEWAWVKELLAEHPAELAEVEAARAARLAELRAEVEAKVAA	653 pM
A94P (designed binder) MTLQELLREEALRRAEAEAFRYALELLAEKFPEQKEYLLDLAEEIESQIRSLSGVDVEDVRKFLDKEWAWVKELLAEHPAELAEVEAARAARLPELRAEVEAKVAA	956 pM
V85S (designed binder) MTLQELLREEALRRAEAEAFRYALELLAEKFPEQKEYLLDLAEEIESQIRSLSGVDVEDVRKFLDKEWAWVKELLAEHPAELAESEAARAARLAELRAEVEAKVAA	869 pM
A76D (designed binder) MTLQELLREEALRRAEAEAFRYALELLAEKFPEQKEYLLDLAEEIESQIRSLSGVDVEDVRKFLDKEWAWVKELLDEHPAELAEVEAARAARLAELRAEVEAKVAA	446 pM
L3W (designed binder) MTWQELLREEALRRAEAEAFRYALELLAEKFPEQKEYLLDLAEEIESQIRSLSGVDVEDVRKFLDKEWAWVKELLAEHPAELAEVEAARAARLAELRAEVEAKVAA	2250 pM
E86K (designed binder) MTLQELLREEALRRAEAEAFRYALELLAEKFPEQKEYLLDLAEEIESQIRSLSGVDVEDVRKFLDKEWAWVKELLAEHPAELAEVKAARAARLAELRAEVEAKVAA	1270 pM
V60M (designed binder) MTLQELLREEALRRAEAEAFRYALELLAEKFPEQKEYLLDLAEEIESQIRSLSGVDVEDMRKFLDKEWAWVKELLAEHPAELAEVEAARAARLAELRAEVEAKVAA	490 pM
L27K (designed binder) MTLQELLREEALRRAEAEAFRYALELKAEKFPEQKEYLLDLAEEIESQIRSLSGVDVEDVRKFLDKEWAWVKELLAEHPAELAEVEAARAARLAELRAEVEAKVAA	490 pM
K62G (designed binder) MTLQELLREEALRRAEAEAFRYALELLAEKFPEQKEYLLDLAEEIESQIRSLSGVDVEDVRGFLDKEWAWVKELLAEHPAELAEVEAARAARLAELRAEVEAKVAA	869 pM
E86T (designed binder) MTLQELLREEALRRAEAEAFRYALELLAEKFPEQKEYLLDLAEEIESQIRSLSGVDVEDVRKFLDKEWAWVKELLAEHPAELAEVTAARAARLAELRAEVEAKVAA	718 pM
F63I (designed binder) MTLQELLREEALRRAEAEAFRYALELLAEKFPEQKEYLLDLAEEIESQIRSLSGVDVEDVRKILDKEWAWVKELLAEHPAELAEVEAARAARLAELRAEVEAKVAA	1540 pM
M1W (designed binder) WTLQELLREEALRRAEAEAFRYALELLAEKFPEQKEYLLDLAEEIESQIRSLSGVDVEDVRKFLDKEWAWVKELLAEHPAELAEVEAARAARLAELRAEVEAKVAA	653 pM
K35E (designed binder) MTLQELLREEALRRAEAEAFRYALELLAEKFPEQEEYLLDLAEEIESQIRSLSGVDVEDVRKFLDKEWAWVKELLAEHPAELAEVEAARAARLAELRAEVEAKVAA	1160 pM
A90C (designed binder) MTLQELLREEALRRAEAEAFRYALELLAEKFPEQKEYLLDLAEEIESQIRSLSGVDVEDVRKFLDKEWAWVKELLAEHPAELAEVEAARCARLAELRAEVEAKVAA	718 pM
K103Y (designed binder) MTLQELLREEALRRAEAEAFRYALELLAEKFPEQKEYLLDLAEEIESQIRSLSGVDVEDVRKFLDKEWAWVKELLAEHPAELAEVEAARAARLAELRAEVEAYVAA	869 pM
H78L (designed binder) MTLQELLREEALRRAEAEAFRYALELLAEKFPEQKEYLLDLAEEIESQIRSLSGVDVEDVRKFLDKEWAWVKELLAELPAELAEVEAARAARLAELRAEVEAKVAA	1860 pM

Binder	apparent Kd (screen)
L52M (designed binder) MTLQELLREEALRRAEAEAFRYALELLAEKFPEQKEYLLDLAEEIESQIRSMSGVDVEDVRKFLDKEWAWVKELLAEHPAELAEVEAARAARLAELRAEVEAKVAA	15200 pM
A91F (designed binder) MTLQELLREEALRRAEAEAFRYALELLAEKFPEQKEYLLDLAEEIESQIRSLSGVDVEDVRKFLDKEWAWVKELLAEHPAELAEVEAARAFRLAELRAEVEAKVAA	490 pM
Q48N (designed binder) MTLQELLREEALRRAEAEAFRYALELLAEKFPEQKEYLLDLAEEIESNIRSLSGVDVEDVRKFLDKEWAWVKELLAEHPAELAEVEAARAARLAELRAEVEAKVAA	490 pM
A83I (designed binder) MTLQELLREEALRRAEAEAFRYALELLAEKFPEQKEYLLDLAEEIESQIRSLSGVDVEDVRKFLDKEWAWVKELLAEHPAELIEVEAARAARLAELRAEVEAKVAA	869 pM
L93G (designed binder) MTLQELLREEALRRAEAEAFRYALELLAEKFPEQKEYLLDLAEEIESQIRSLSGVDVEDVRKFLDKEWAWVKELLAEHPAELAEVEAARAARGAELRAEVEAKVAA	1400 pM
E29C (designed binder) MTLQELLREEALRRAEAEAFRYALELLACKFPEQKEYLLDLAEEIESQIRSLSGVDVEDVRKFLDKEWAWVKELLAEHPAELAEVEAARAARLAELRAEVEAKVAA	539 pM
L52F (designed binder) MTLQELLREEALRRAEAEAFRYALELLAEKFPEQKEYLLDLAEEIESQIRSFSGVDVEDVRKFLDKEWAWVKELLAEHPAELAEVEAARAARLAELRAEVEAKVAA	1690 pM
A87N (designed binder) MTLQELLREEALRRAEAEAFRYALELLAEKFPEQKEYLLDLAEEIESQIRSLSGVDVEDVRKFLDKEWAWVKELLAEHPAELAEVENARAARLAELRAEVEAKVAA	593 pM
A88V (designed binder) MTLQELLREEALRRAEAEAFRYALELLAEKFPEQKEYLLDLAEEIESQIRSLSGVDVEDVRKFLDKEWAWVKELLAEHPAELAEVEAVRAARLAELRAEVEAKVAA	956 pM
L12W (designed binder) MTLQELLREEAWRRAEAEAFRYALELLAEKFPEQKEYLLDLAEEIESQIRSLSGVDVEDVRKFLDKEWAWVKELLAEHPAELAEVEAARAARLAELRAEVEAKVAA	593 pM
A91H (designed binder) MTLQELLREEALRRAEAEAFRYALELLAEKFPEQKEYLLDLAEEIESQIRSLSGVDVEDVRKFLDKEWAWVKELLAEHPAELAEVEAARAHRLAELRAEVEAKVAA	593 pM
A102E (designed binder) MTLQELLREEALRRAEAEAFRYALELLAEKFPEQKEYLLDLAEEIESQIRSLSGVDVEDVRKFLDKEWAWVKELLAEHPAELAEVEAARAARLAELRAEVEEKVAA	490 pM
L7T (designed binder) MTLQELTREEALRRAEAEAFRYALELLAEKFPEQKEYLLDLAEEIESQIRSLSGVDVEDVRKFLDKEWAWVKELLAEHPAELAEVEAARAARLAELRAEVEAKVAA	18300 pM
L96W (designed binder) MTLQELLREEALRRAEAEAFRYALELLAEKFPEQKEYLLDLAEEIESQIRSLSGVDVEDVRKFLDKEWAWVKELLAEHPAELAEVEAARAARLAEWRAEVEAKVAA	790 pM
L64N (designed binder) MTLQELLREEALRRAEAEAFRYALELLAEKFPEQKEYLLDLAEEIESQIRSLSGVDVEDVRKFNDKEWAWVKELLAEHPAELAEVEAARAARLAELRAEVEAKVAA	593 pM
D59Q (designed binder) MTLQELLREEALRRAEAEAFRYALELLAEKFPEQKEYLLDLAEEIESQIRSLSGVDVEQVRKFLDKEWAWVKELLAEHPAELAEVEAARAARLAELRAEVEAKVAA	869 pM
A105C (designed binder) MTLQELLREEALRRAEAEAFRYALELLAEKFPEQKEYLLDLAEEIESQIRSLSGVDVEDVRKFLDKEWAWVKELLAEHPAELAEVEAARAARLAELRAEVEAKVCA	653 pM
